In PMC7397465, “Crystal structure of the Rab-binding domain of Rab11 family-interacting protein 2” (Acta Crystallographica. Section F, Structural Biology …, 2020):

Molecular target: the molecule itself
Experiment: crystal structure; vapor diffusion, 298 K; protein 6 mg/ml in 150 mM NaCl, 10 mM Tris-HCl, 1 mM DTT pH 7.5; reservoir 0.01 M cobalt chloride, 0.1 M sodium acetate pH 4.8, 1 M 1,6-hexanediol; 2.3 A; four monomers in the asymmetric unit

B1: Rab-binding domain of Rab11 family-interacting protein 2 (domain or fragment, Homo sapiens)
chain: GSHMSNPFDATAGYRSLTYEEVLQELVKHKELLRRKDTHIRELEDYIDNLLVRVMEETPSILRVPYEPSRKAGKFSNS
notes: not FIP2 residues by the stated limits 439-512; Expression vector pNIC-Bsa4 with a TEV protease cleavage site; tag cleaved with TEV before crystallization; In the crystal at least the first seven and the last 15 residues are disordered (monomers seen from 445-451 to 496 or 497); also called FIP2; RBD of FIP2; source: Escherichia coli BL21(DE3), purified (nickel agarose, TEV cleavage, Mono Q, …)
With B1 the “stoichiometry N” value was 4.
